Molecular target: TSLP, Q969D9
Experiment: Kd (SPR)

Row | Kd [µM] | Binder
1 | 0.128 | unnamed (protein) chain 1: QMQLVESGGGVVQPGRSLRLSCAASGFTFRTYGMHWVRQAPGKGLEWVAVIWYDGSNKHYADSVKGRFTITRDNSKNTLNLQMNSLRAEDTAVYYCARAPRYDWTYEAFDVWGQGTMVTVSS chain 2: SYVLTQPPSVSVAPGQTARITCGGNNLGSKSVHWYQQKPGQAPVLVVYDDSDRPSWIPERFSGSNSGNTATLTISRGEAGDEADYYCQVWDSSSDHVVFGGGTKLTVL
2 | 0.369 | unnamed (protein) chain 1: QMQLVESGGGVVQPGRSLRLSCAASGFTFRTYGMHWVRQAPGKGLEWVAVIWYDGSNKHYADSVKGRFTITRDNSKNTLNLQMNSLRAEDTAVYYCARSPRYDEYWEAFDVWGQGTMVTVSS chain 2: SYVLTQPPSVSVAPGQTARITCGGNNLGSKSVHWYQQKPGQAPVLVVYDDSDRPSWIPERFSGSNSGNTATLTISRGEAGDEADYYCQVWDSSSDHVVFGGGTKLTVL
3 | 0.116 | unnamed (protein) chain 1: QMQLVESGGGVVQPGRSLRLSCAASGFTFRTYGMHWVRQAPGKGLEWVAVIWYDGSNKHYADSVKGRFTITRDNSKNTLNLQMNSLRAEDTAVYYCARAPRYDFYYEAFDVWGQGTMVTVSS chain 2: SYVLTQPPSVSVAPGQTARITCGGNNLGSKSVHWYQQKPGQAPVLVVYDDSDRPSWIPERFSGSNSGNTATLTISRGEAGDEADYYCQVWDSSSDHVVFGGGTKLTVL
4 | 0.168 | unnamed (protein) chain 1: QMQLVESGGGVVQPGRSLRLSCAASGFTFRTYGMHWVRQAPGKGLEWVAVIWYDGSNKHYADSVKGRFTITRDNSKNTLNLQMNSLRAEDTAVYYCARAPRYDEHYEAFDVWGQGTMVTVSS chain 2: SYVLTQPPSVSVAPGQTARITCGGNNLGSKSVHWYQQKPGQAPVLVVYDDSDRPSWIPERFSGSNSGNTATLTISRGEAGDEADYYCQVWDSSSDHVVFGGGTKLTVL
5 | 0.0849 | unnamed (protein) chain 1: QMQLVESGGGVVQPGRSLRLSCAASGFTFRTYGMHWVRQAPGKGLEWVAVIWYDGSNKHYADSVKGRFTITRDNSKNTLNLQMNSLRAEDTAVYYCARAPRYDEYWEAFDVWGQGTMVTVSS chain 2: SYVLTQPPSVSVAPGQTARITCGGNNLGSKSVHWYQQKPGQAPVLVVYDDSDRPSWIPERFSGSNSGNTATLTISRGEAGDEADYYCQVWDSSSDHVVFGGGTKLTVL
6 | 0.138 | unnamed (protein) chain 1: QMQLVESGGGVVQPGRSLRLSCAASGFTFRTYGMHWVRQAPGKGLEWVAVIWYDGSNKHYADSVKGRFTITRDNSKNTLNLQMNSLRAEDTAVYYCARAPRYDYYYEAFDVWGQGTMVTVSS chain 2: SYVLTQPPSVSVAPGQTARITCGGNNLGSKSVHWYQQKPGQAPVLVVYDDSDRPSWIPERFSGSNSGNTATLTISRGEAGDEADYYCQVWDSSSDHVVFGGGTKLTVL
7 | 0.0999 | unnamed (protein) chain 1: QMQLVESGGGVVQPGRSLRLSCAASGFTFRTYGMHWVRQAPGKGLEWVAVIWYDGSNKHYADSVKGRFTITRDNSKNTLNLQMNSLRAEDTAVYYCARAPRYDDYLEAFDVWGQGTMVTVSS chain 2: SYVLTQPPSVSVAPGQTARITCGGNNLGSKSVHWYQQKPGQAPVLVVYDDSDRPSWIPERFSGSNSGNTATLTISRGEAGDEADYYCQVWDSSSDHVVFGGGTKLTVL
8 | 0.0236 | unnamed (protein) chain 1: QMQLVESGGGVVQPGRSLRLSCAASGFTFRTYGMHWVRQAPGKGLEWVAVIWYDGSNKHYADSVKGRFTITRDNSKNTLNLQMNSLRAEDTAVYYCARAPRYYWYWEAFDVWGQGTMVTVSS chain 2: SYVLTQPPSVSVAPGQTARITCGGNNLGSKSVHWYQQKPGQAPVLVVYDDSDRPSWIPERFSGSNSGNTATLTISRGEAGDEADYYCQVWDSSSDHVVFGGGTKLTVL
9 | 0.104 | unnamed (protein) chain 1: QMQLVESGGGVVQPGRSLRLSCAASGFTFRTYGMHWVRQAPGKGLEWVAVIWYDGSNKHYADSVKGRFTITRDNSKNTLNLQMNSLRAEDTAVYYCARAPRYDYEYEAFDVWGQGTMVTVSS chain 2: SYVLTQPPSVSVAPGQTARITCGGNNLGSKSVHWYQQKPGQAPVLVVYDDSDRPSWIPERFSGSNSGNTATLTISRGEAGDEADYYCQVWDSSSDHVVFGGGTKLTVL

The next lines start with the binder.

Row | Binder | Kd [µM]
10 | unnamed (protein) chain 1: QMQLVESGGGVVQPGRSLRLSCAASGFTFRTYGMHWVRQAPGKGLEWVAVIWYDGSNKHYADSVKGRFTITRDNSKNTLNLQMNSLRAEDTAVYYCARSPRYDWYLEAFDVWGQGTMVTVSS chain 2: SYVLTQPPSVSVAPGQTARITCGGNNLGSKSVHWYQQKPGQAPVLVVYDDSDRPSWIPERFSGSNSGNTATLTISRGEAGDEADYYCQVWDSSSDHVVFGGGTKLTVL | 0.335
11 | unnamed (protein) chain 1: QMQLVESGGGVVQPGRSLRLSCAASGFTFRTYGMHWVRQAPGKGLEWVAVIWYDGSNKHYADSVKGRFTITRDNSKNTLNLQMNSLRAEDTAVYYCARAPRYDDDWEAFDVWGQGTMVTVSS chain 2: SYVLTQPPSVSVAPGQTARITCGGNNLGSKSVHWYQQKPGQAPVLVVYDDSDRPSWIPERFSGSNSGNTATLTISRGEAGDEADYYCQVWDSSSDHVVFGGGTKLTVL | 0.0827
12 | unnamed (protein) chain 1: QMQLVESGGGVVQPGRSLRLSCAASGFTFRTYGMHWVRQAPGKGLEWVAVIWYDGSNKHYADSVKGRFTITRDNSKNTLNLQMNSLRAEDTAVYYCARAPRYDDAYEAFDVWGQGTMVTVSS chain 2: SYVLTQPPSVSVAPGQTARITCGGNNLGSKSVHWYQQKPGQAPVLVVYDDSDRPSWIPERFSGSNSGNTATLTISRGEAGDEADYYCQVWDSSSDHVVFGGGTKLTVL | 0.0996
13 | unnamed (protein) chain 1: QMQLVESGGGVVQPGRSLRLSCAASGFTFRTYGMHWVRQAPGKGLEWVAVIWYDGSNKHYADSVKGRFTITRDNSKNTLNLQMNSLRAEDTAVYYCARAPRYYEYWEAFDVWGQGTMVTVSS chain 2: SYVLTQPPSVSVAPGQTARITCGGNNLGSKSVHWYQQKPGQAPVLVVYDDSDRPSWIPERFSGSNSGNTATLTISRGEAGDEADYYCQVWDSSSDHVVFGGGTKLTVL | 0.0292
14 | unnamed (protein) chain 1: QMQLVESGGGVVQPGRSLRLSCAASGFTFRTYGMHWVRQAPGKGLEWVAVIWYDGSNKHYADSVKGRFTITRDNSKNTLNLQMNSLRAEDTAVYYCARSPRYDYYYEAFDVWGQGTMVTVSS chain 2: SYVLTQPPSVSVAPGQTARITCGGNNLGSKSVHWYQQKPGQAPVLVVYDDSDRPSWIPERFSGSNSGNTATLTISRGEAGDEADYYCQVWDSSSDHVVFGGGTKLTVL | 0.337
15 | unnamed (protein) chain 1: QMQLVESGGGVVQPGRSLRLSCAASGFTFRTYGMHWVRQAPGKGLEWVAVIWYDGSNKHYADSVKGRFTITRDNSKNTLNLQMNSLRAEDTAVYYCARSPRYDEYYEAFDVWGQGTMVTVSS chain 2: SYVLTQPPSVSVAPGQTARITCGGNNLGSKSVHWYQQKPGQAPVLVVYDDSDRPSWIPERFSGSNSGNTATLTISRGEAGDEADYYCQVWDSSSDHVVFGGGTKLTVL | 0.242
16 | unnamed (protein) chain 1: QMQLVESGGGVVQPGRSLRLSCAASGFTFRTYGMHWVRQAPGKGLEWVAVIWYDGSNKHYADSVKGRFTITRDNSKNTLNLQMNSLRAEDTAVYYCARAPRYDWAYEAFDVWGQGTMVTVSS chain 2: SYVLTQPPSVSVAPGQTARITCGGNNLGSKSVHWYQQKPGQAPVLVVYDDSDRPSWIPERFSGSNSGNTATLTISRGEAGDEADYYCQVWDSSSDHVVFGGGTKLTVL | 0.404
17 | unnamed (protein) chain 1: QMQLVESGGGVVQPGRSLRLSCAASGFTFRTYGMHWVRQAPGKGLEWVAVIWYDGSNKHYADSVKGRFTITRDNSKNTLNLQMNSLRAEDTAVYYCARAPRYDERWEAFDVWGQGTMVTVSS chain 2: SYVLTQPPSVSVAPGQTARITCGGNNLGSKSVHWYQQKPGQAPVLVVYDDSDRPSWIPERFSGSNSGNTATLTISRGEAGDEADYYCQVWDSSSDHVVFGGGTKLTVL | 0.494
18 | unnamed (protein) chain 1: QMQLVESGGGVVQPGRSLRLSCAASGFTFRTYGMHWVRQAPGKGLEWVAVIWYDGSNKHYADSVKGRFTITRDNSKNTLNLQMNSLRAEDTAVYYCARAPRYDEYYDAFDVWGQGTMVTVSS chain 2: SYVLTQPPSVSVAPGQTARITCGGNNLGSKSVHWYQQKPGQAPVLVVYDDSDRPSWIPERFSGSNSGNTATLTISRGEAGDEADYYCQVWDSSSDHVVFGGGTKLTVL | 0.293
19 | unnamed (protein) chain 1: QMQLVESGGGVVQPGRSLRLSCAASGFTFRTYGMHWVRQAPGKGLEWVAVIWYDGSNKHYADSVKGRFTITRDNSKNTLNLQMNSLRAEDTAVYYCARSPRYDWYYEAFDVWGQGTMVTVSS chain 2: SYVLTQPPSVSVAPGQTARITCGGNNLGSKSVHWYQQKPGQAPVLVVYDDSDRPSWIPERFSGSNSGNTATLTISRGEAGDEADYYCQVWDSSSDHVVFGGGTKLTVL | 0.122

Source: the FLAb antibody collection (doi:10.1101/2023.12.08.570889)
